Results reported in patent US20210213055A1 (Stanford University, published 2021).
Ends that are not written are not given here.

Legend:
[1] = biological target: T1, Siglec-10 expressed on human donor-derived macrophages (human, UniProt Q96LC7 17-697); assay: cell-based or functional assay
T1 sequence (looked up): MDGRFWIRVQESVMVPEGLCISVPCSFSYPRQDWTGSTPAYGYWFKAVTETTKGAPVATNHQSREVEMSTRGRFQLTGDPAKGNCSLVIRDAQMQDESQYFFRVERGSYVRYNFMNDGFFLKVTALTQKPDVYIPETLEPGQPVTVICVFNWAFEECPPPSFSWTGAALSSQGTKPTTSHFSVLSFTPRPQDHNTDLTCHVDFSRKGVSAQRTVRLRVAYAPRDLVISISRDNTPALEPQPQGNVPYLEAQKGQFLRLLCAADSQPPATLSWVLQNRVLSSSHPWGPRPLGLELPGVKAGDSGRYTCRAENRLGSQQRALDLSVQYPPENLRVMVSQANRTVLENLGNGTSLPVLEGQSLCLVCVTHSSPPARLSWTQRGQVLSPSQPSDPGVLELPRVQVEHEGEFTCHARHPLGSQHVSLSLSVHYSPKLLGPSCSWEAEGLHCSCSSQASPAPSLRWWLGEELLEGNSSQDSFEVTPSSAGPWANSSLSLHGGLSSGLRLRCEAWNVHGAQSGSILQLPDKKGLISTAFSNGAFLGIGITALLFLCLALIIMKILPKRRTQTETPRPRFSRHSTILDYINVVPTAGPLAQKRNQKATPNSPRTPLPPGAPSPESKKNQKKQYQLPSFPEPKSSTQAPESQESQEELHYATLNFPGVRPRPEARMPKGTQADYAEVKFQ

recombinant Siglec5-Fc = biological target: T2, recombinant Siglec5-Fc (human, UniProt O15389 17-434, limits assumed); assay: flow cytometry, Fc-fusion on MCF-7 cells, anti-human Fc detection
T2 construct: Bought reagent; not shown: human Fc
T2 sequence (looked up): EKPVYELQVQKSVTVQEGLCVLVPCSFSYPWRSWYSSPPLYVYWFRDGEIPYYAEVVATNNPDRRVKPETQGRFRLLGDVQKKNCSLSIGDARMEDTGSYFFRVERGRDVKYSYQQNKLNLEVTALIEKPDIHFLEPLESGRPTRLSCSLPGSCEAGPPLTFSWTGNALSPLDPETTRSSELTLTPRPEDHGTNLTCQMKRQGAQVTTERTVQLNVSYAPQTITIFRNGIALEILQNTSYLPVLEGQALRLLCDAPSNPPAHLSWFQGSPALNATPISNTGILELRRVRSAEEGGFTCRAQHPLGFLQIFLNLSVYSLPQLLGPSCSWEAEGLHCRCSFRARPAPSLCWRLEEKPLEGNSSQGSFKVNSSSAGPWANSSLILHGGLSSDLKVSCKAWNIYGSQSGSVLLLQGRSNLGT
Method: Siglec10 has been reported to interact with the highly sialylated form of CD24. […] Indeed, we observed that CD24 deletion alone is insufficient to completely abrogate Siglec-10-Fc binding in the presence of surface sialylation (FIG. 15a,b).
Neuraminidase treatment and recombinant Siglec binding assay. MCF-7 cells were treated with either neuraminidase (from Vibrio cholerae, Roche) (1×10⁶ cells/100 U/mL) or neuraminidase that was heat inactivated for 15 min at 95° C. prior to incubation for 1 h at 37° C. in serum-free medium, after which reactions were quenched with serum prior to analysis. Recombinant Siglecs (10, 5, and 9) were purchased as human Fc-fusion proteins from R&D Systems. Binding of recombinant Siglecs versus human IgG1 control was assayed at a concentration of 1×10⁵ cells/1 mg/mL at 37° C. for 1 h, in the absence of EDTA. Cells were stained with a fluorescently-conjugated anti-human Fc antibody (Biolegend) to enable the measurement of recombinant Siglec binding by flow cytometry.

phagocytosis of CD24-expressing human tumors [1]: ≤ 13 fold
B1: CD24 expressed on human cancer cells (MCF-7 and other CD24+ cells) (ligand, UniProt P25063 27-59, looked up)
chain: SETTTGTSSNSSQSTSNSGLAPNPTNATTKAAG
modifications: also: heavily glycosylated, sialylated, GPI-anchored
notes: whole, on cells; also called Small Cell Lung Carcinoma Cluster 4 Antigen
binding result (recombinant Siglec5-Fc): no binding (tested: 1×10^5 cells/1 mg/mL)
